Measured values taken from patent publication EP4786492A1 (Simcere Zaiming Pharmaceutical Co., Ltd., dated 2026).

Columns and labels:
[1] = target: T1, human DLL3 endogenously expressed on SHP77 and NCI-H82 cells (human, UniProt Q9NYJ7 27-618); assay: FACS, SHP77 and NCI-H82 cells
T1 construct: whole, on cells; cells endogenously expressing DLL3; also called SHP77 cells; SHP-77 cells
T1 sequence (looked up): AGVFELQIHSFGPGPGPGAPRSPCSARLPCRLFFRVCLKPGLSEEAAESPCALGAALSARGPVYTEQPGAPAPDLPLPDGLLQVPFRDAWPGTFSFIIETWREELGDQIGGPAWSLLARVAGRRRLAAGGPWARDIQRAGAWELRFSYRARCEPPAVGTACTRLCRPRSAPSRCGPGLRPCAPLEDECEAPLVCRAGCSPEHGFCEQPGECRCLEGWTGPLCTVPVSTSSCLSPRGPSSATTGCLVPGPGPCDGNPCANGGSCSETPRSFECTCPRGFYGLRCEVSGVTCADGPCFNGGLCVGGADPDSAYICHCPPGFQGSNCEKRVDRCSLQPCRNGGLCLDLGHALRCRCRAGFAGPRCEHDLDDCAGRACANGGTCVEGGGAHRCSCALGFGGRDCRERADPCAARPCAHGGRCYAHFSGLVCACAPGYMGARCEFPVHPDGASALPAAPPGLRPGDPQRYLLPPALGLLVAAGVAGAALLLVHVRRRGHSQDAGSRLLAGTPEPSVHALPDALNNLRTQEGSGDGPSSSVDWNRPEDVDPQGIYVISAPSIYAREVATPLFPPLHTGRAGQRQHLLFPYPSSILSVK

[2] = target: T2, human DLL3 on CHO-K1 hDLL3 cells (human, UniProt Q9NYJ7 27-492); assay: FACS, CHO-K1 hDLL3 cells
T2 construct: also called human DLL3 recombinant cell line
T2 sequence: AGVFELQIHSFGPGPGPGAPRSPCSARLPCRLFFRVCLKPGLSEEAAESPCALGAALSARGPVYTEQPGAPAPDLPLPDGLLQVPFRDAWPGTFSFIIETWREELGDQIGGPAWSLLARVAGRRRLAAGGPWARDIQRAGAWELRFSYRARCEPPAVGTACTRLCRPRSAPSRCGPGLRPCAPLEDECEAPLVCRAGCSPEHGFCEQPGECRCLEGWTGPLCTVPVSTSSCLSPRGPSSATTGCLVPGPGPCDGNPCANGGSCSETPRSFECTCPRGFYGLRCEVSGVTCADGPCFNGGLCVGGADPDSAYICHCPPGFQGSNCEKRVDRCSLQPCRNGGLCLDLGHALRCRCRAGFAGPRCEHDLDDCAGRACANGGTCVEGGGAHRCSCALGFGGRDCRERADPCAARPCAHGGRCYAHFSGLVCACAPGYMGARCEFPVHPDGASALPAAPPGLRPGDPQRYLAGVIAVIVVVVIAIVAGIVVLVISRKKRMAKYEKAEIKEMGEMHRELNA

[3] = target: T3, mouse DLL3 on CHO K1-mDLL3 cells (mouse, UniProt O88516 33-490); assay: FACS, CHO K1-mDLL3 cells
T3 construct: also called mouse DLL3 recombinant cell line
T3 sequence: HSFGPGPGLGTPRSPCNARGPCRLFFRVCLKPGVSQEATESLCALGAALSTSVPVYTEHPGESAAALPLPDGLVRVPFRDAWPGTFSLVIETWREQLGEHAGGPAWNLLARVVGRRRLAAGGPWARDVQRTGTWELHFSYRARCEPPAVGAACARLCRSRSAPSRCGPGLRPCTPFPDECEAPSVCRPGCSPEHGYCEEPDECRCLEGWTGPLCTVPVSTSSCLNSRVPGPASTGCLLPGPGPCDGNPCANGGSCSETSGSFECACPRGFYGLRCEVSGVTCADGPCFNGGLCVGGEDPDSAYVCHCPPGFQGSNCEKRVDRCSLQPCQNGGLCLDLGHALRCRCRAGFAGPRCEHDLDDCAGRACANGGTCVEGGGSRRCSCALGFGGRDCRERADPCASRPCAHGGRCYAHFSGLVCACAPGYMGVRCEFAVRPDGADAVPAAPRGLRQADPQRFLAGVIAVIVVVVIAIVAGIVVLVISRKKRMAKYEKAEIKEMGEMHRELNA

human DLL3-his protein = target: T4, human DLL3-his protein (human, UniProt Q9NYJ7 27-492); assay: ELISA
T4 construct: also called human DLL3 protein; DLL3 antigen protein; not shown: His tag
T4 sequence: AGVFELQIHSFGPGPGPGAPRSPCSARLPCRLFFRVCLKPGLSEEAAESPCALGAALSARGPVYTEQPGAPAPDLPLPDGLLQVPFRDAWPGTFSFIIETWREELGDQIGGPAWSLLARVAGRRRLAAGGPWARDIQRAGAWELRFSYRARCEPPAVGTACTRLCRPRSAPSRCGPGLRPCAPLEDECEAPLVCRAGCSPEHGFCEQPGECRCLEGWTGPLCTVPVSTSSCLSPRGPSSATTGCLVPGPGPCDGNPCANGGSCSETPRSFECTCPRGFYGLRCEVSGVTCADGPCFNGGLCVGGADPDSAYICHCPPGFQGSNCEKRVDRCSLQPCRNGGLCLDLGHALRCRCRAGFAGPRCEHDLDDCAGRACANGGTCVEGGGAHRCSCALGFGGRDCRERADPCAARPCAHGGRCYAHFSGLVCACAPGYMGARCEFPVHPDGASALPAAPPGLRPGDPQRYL

[4] = target: T5, monkey DLL3 on CHO K1-cyno DLL3 cells (cynomolgus monkey); assay: FACS, CHO K1-cyno DLL3 cells
T5 construct: also called monkey DLL3 recombinant cell line
T5 chain: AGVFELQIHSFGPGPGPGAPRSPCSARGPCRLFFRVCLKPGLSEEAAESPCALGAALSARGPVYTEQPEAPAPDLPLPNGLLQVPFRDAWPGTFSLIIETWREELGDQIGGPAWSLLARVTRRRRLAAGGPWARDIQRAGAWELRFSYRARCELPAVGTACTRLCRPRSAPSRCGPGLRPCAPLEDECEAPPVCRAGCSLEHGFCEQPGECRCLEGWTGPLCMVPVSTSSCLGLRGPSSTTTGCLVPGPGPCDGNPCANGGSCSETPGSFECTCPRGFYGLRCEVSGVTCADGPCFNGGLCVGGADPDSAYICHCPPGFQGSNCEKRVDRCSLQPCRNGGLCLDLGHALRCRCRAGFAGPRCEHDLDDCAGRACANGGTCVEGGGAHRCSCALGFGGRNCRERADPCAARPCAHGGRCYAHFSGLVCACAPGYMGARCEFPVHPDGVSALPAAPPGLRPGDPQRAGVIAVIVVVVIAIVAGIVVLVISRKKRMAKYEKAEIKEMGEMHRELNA

Measured: binding result

B1: Hab014VL1VH2-hFc (Fc fusion)
scFv (part 1 of 2): DIQMTQSPSSLSASVGDRVTITCKASEDIYNRLAWYQQKPGKVPKLLISGATSLETGVPSRFSGSGSGTDFTLTISSLQPEDVATYYCQQYWSLPWTFGGGTKVEIK
scFv (part 2 of 2): EVQLVQSGAEVKKPGASVKVSCKASGYTFTDYYMNWVRQAPGQRLEWMGDINPNHGDTGYNQKFTGRVTLTVDKSASTAYMELSSLRSEDTAVYYCARNFFYYGTTYGWYFDVWGQGTTVTVSS
notes: humanized mab014, VL-linker-VH-human IgG1 Fc; not shown: linker; human IgG1 Fc fragment
binds: all assays above

B2: Hab014VL3VH1-hFc (Fc fusion)
scFv (part 1 of 2): DIVMTQSPDSLAVSLGERATINCKASEDIYNRLAWYQQKPGQTPKLLISGATSLETGVPDRFSGSGSGKDFTLTISSLQAEDVAVYYCQQYWSLPWTFGGGTKVEIK
scFv (part 2 of 2): EVQLVQSGAEVKKPGASVKVSCKASGYTFTDYYMNWVRQAPGQRLEWMGDINPNHGDTGYNQKFTGRVTITVDKSASTAYMELSSLRSEDTAVYYCARNFFYYGTTYGWYFDVWGQGTTVTVSS
notes: as for B1
binds: all assays above

B3: Hab014VL2VH1-hFc (Fc fusion)
scFv (part 1 of 2): DIQMTQSPSSLSASVGDRVTITCKASEDIYNRLAWYQQKPGKVPKLLISGATSLETGVPSRFSGSGSGKDFTLTISSLQPEDVATYYCQQYWSLPWTFGGGTKVEIK
scFv (part 2 of 2): EVQLVQSGAEVKKPGASVKVSCKASGYTFTDYYMNWVRQAPGQRLEWMGDINPNHGDTGYNQKFTGRVTITVDKSASTAYMELSSLRSEDTAVYYCARNFFYYGTTYGWYFDVWGQGTTVTVSS
notes: as for B1
binds: all assays above

B4: Hab015VL4VH1a-hFc (Fc fusion)
scFv (part 1 of 2): NIVLTQSPATLSLSPGERATLSCKASENVGTYVSWFQQKPGQSPRLLIYGASNRYTGIPARFSGSGSGTDFTLTISSLEPEDFAVYYCGQFYSFPSTFGGGTKVEIK
scFv (part 2 of 2): EVQLVESGGGLVKPGGSLRLSCAASGITFSNFWMNWVRQAPGKGLEWVGQIRLKSDDYATHYAESVKGRFTISREDSKNTVYLQMNSLKTEDTAVYYCTTGYYFDYWGQGTTVTVSS
notes: humanized mab015, VL-linker-VH-human IgG1 Fc; also called Hab015L4H1a; not shown: linker; human IgG1 Fc fragment
binds: all assays above

B5: Hab015VL5VH1a-hFc (Fc fusion)
scFv (part 1 of 2): NIQMTQSPSSLSASVGDRVTITCKASENVGTYVSWYQQKPGKSPKLLIYGASNRYTGVPSRFSGSGSGTDFTLTISSLQPEDFATYYCGQFYSFPSTFGGGTKVEIK
scFv (part 2 of 2): EVQLVESGGGLVKPGGSLRLSCAASGITFSNFWMNWVRQAPGKGLEWVGQIRLKSDDYATHYAESVKGRFTISREDSKNTVYLQMNSLKTEDTAVYYCTTGYYFDYWGQGTTVTVSS
notes: humanized mab015, VL-linker-VH-human IgG1 Fc; also called Hab015L5H1a; not shown: linker; human IgG1 Fc fragment
binds: all assays above

B6: Hab015VL4VH5a-hFc (Fc fusion)
scFv (part 1 of 2): NIVLTQSPATLSLSPGERATLSCKASENVGTYVSWFQQKPGQSPRLLIYGASNRYTGIPARFSGSGSGTDFTLTISSLEPEDFAVYYCGQFYSFPSTFGGGTKVEIK
scFv (part 2 of 2): EVQLVESGGGLVKPGGSLRLSCVASGITFSNFWMNWVRQAPGKGLEWVGQIRLKSDDYATHYAESVKGRFTISREDSKNTVYLQMNSLKTEDTAVYYCTTGYYFDYWGQGTTVTVSS
notes: humanized mab015, VL-linker-VH-human IgG1 Fc; also called Hab015L4H5a; not shown: linker; human IgG1 Fc fragment
binds: all assays above

B7: Hab015VL4VH1b-hFc (Fc fusion)
scFv (part 1 of 2): NIVLTQSPATLSLSPGERATLSCKASENVGTYVSWFQQKPGQSPRLLIYGASNRYTGIPARFSGSGSGTDFTLTISSLEPEDFAVYYCGQFYSFPSTFGGGTKVEIK
scFv (part 2 of 2): EVQLVESGGGLVKPGGSLRLSCAASGITFSNFWMNWVRQAPGKGLEWVGQIRLKSEDYATHYAESVKGRFTISREDSKNTVYLQMNSLKTEDTAVYYCTTGYYFDYWGQGTTVTVSS
notes: humanized mab015, VL-linker-VH-human IgG1 Fc; also called Hab015L4H1b; not shown: linker; human IgG1 Fc fragment
binds: all assays above

B8: Hab015VL4VH6a-hFc (Fc fusion)
scFv (part 1 of 2): NIVLTQSPATLSLSPGERATLSCKASENVGTYVSWFQQKPGQSPRLLIYGASNRYTGIPARFSGSGSGTDFTLTISSLEPEDFAVYYCGQFYSFPSTFGGGTKVEIK
scFv (part 2 of 2): EVQLVESGGGLVKPGGSLRLSCAASGITFSNFWMNWVRQAPEKGLEWVGQIRLKSDDYATHYAESVKGRFTISREDSKNTVYLQMNSLKTEDTAVYYCTTGYYFDYWGQGTTVTVSS
notes: humanized mab015, VL-linker-VH-human IgG1 Fc; also called Hab015L4H6a; not shown: linker; human IgG1 Fc fragment
binds: all assays above
